Source: PMC6856373, “The first comprehensive phylogenetic and biochemical analysis of NADH diphosphatases reveals that the enzyme from Tuber melanosporum is highly active towards NAD^+” (Scientific Reports, 2019)

How the values were obtained:
[1] = substrate: NC(=O)C1=CN([C@@H]2O[C@H](COP(=O)(O)OP(=O)(O)OC[C@H]3O[C@@H](n4cnc5c(N)ncnc54)[C@H](O)[C@@H]3O)[C@@H](O)[C@H]2O)C=CC1; test: HPLC of AMP formation, initial rates, Michaelis-Menten fit; type: biochemical, Tuber melanosporum; details: 50 mM Tris-HCl pH 8.0, 37 °C, 0.5 mM MnCl2
Excerpt: (§1) HPLC of AMP formation, initial rates, Michaelis-Menten fit on […]

[2] = substrate: NC(=O)c1ccc[n+]([C@@H]2O[C@H](COP(=O)(O)OP(=O)(O)OC[C@H]3O[C@@H](n4cnc5c(N)ncnc54)[C@H](O)[C@@H]3O)[C@@H](O)[C@H]2O)c1; test: as above; type: biochemical, Tuber melanosporum; details: 50 mM Tris-HCl pH 8.0, 37 °C, 0.5 mM MnCl2
Excerpt: as §1

B1: TmNADD (Tuber melanosporum Mel28) (protein)
chain: MTQPYTATTESHKTSMLSRKFGQEIINYFSGSPLNRVSFLRSSTAFLRAALPRSKFLLMRDLEPLAASKTTLAWVGYETVRELVGNPFDTEEEEFLRGYDSRVEIPTLVFLGMNEEGTGGGGGGESFEFEGEGGKYVGGPCFALDVTEKGSLKEECEKVQEEAVKGAEGREFRKVRLDLSLVPSDAAILAQARSLLDWNNRNQFCSACGARTVSVHAGTKRICPPSDKAFQKDPEGPPFERPPCISRKGIHNIAFPRTDPTVIMAIINSTGDKVLLGRQRRWPKDFYSTLAGFCEPAESVEDAVRRETWEESGVRVGRVVIHSTQPWPYPANLMMGAIGEALPGGEEIVLKHDPELEDAQWVEVGRVRNALQESTGTPDVEVEGAIEGQLRLPPSTAIAHQLLLAVVNGFHLAKL
B1 showed a Km [1] of 120 ± 10 µM, a kcat [1] of 10.7 ± 1.8 s⁻¹ and a kcat/Km [1] of 89200 ± 19800 M⁻¹ s⁻¹. It also gave a Km [2] of 310 ± 50 µM, a kcat [2] of 2.9 ± 0.2 s⁻¹ and a kcat/Km [2] of 9300 ± 1600 M⁻¹ s⁻¹.
